From patent publication US6558660B2, “Method for regulating IL-10 with IL-9, and applications thereof” (Ludwig Institute for Cancer Research, priority 2000, dated 2003)

What was measured:
[1] = system: P. aeruginosa (serotype 10); conditions: cited from earlier work
IL-10 [2] = assay: PCR of IL-10 transcripts in spleen cells of challenged mice; assay type: in vivo; conditions: after infection, animals which had received IL-9; control mice hardly detectable
Procedure: The experiments described herein report analyses of expression of IL-10. Specifically, total RNA was isolated from spleen cells of challenged mice at different points in time (0.5, 1, 2, 4, and 8 hours). Isolation was carried out in accordance with Campanile, et al, Eur. J. Pharmacol. 307:191 (1996), and Houssiau, et al, J. Immunol. 154:2624 (1995), incorporated by reference. These references also describe the PCR protocols used for amplifying transcripts of β-actin (control), and IL-10. Commercially available primers were used to amplify β actin, and the 5′ and 3′ primers for IL-10 were, respectively: […]
The amplification product for β actin should be 540 base pairs in length, and that of IL-10, 256 base pairs. Products were analyzed via 1.5% agarose gel electrophoresis, and visualized by ethidium bromide staining.

TNF-α [3] = assay: serum TNF-α bioassay (cytotoxicity to WEH1 164 cells) after LPS challenge; assay type: in vivo, mice; conditions: LPS challenged animals (850 μg i.p.); IL-9 24 and 1 hour prior to challenge
From the text: (§1) It has been observed, previously, that there is a strong association between development of fatal septic shock and production of TNF-α. See, e.g., the Campanile papers, cited supra. In addition, IL-12 and IFN-γ are pro-inflammatory cytokines thought to have a pathogenetic role in both septic shock and endotoxemia. See D'Andrea, et al, J. Exp. Med. 178:1041 (1993). Murphy, et al, J. Exp. Med. 180:223 (1994); Kubin, et al, J. Exp. Med. 180:211 (1994). In view of the results secured in examples 1 & 2, studies were undertaken to measure serum levels of TNF-α, IL-12 p40, and IFN-γ, in subject animals challenged with P. aeruginosa in the manner described supra, or lipopolysaccharide antigen (“LPS” hereafter), that were also treated with IL-9.
(§2) In these experiments, mice were injected, intraperitoneally, with 850 μg of LPS, which had been determined previously to constitute an LD90. All animals received doses of IL-9 as described supra, 24 and 1 hour prior to challenge. Sera were analyzed 2, 4, 6, 8, and 24 hours following challenge, using either a standard bioassay for TNF-α (cytotoxicity to TNF-α sensitive WEH1 164 cells), or via an immunossay (IL-12p40 and IFN-γ).

TNF-α [4] = assay: serum TNF-α bioassay (cytotoxicity to WEH1 164 cells) after P. aeruginosa challenge; assay type: in vivo; conditions: P. aeruginosa treated mice; IL-9 24 and 1 hour prior to challenge
From the text: as §1, §2

IL-10 [5] = assay: serum IL-10 by ELISA after P. aeruginosa challenge; assay type: in vivo, mice; conditions: 2 hours following Pseudomonas infection; IL-9 24 and 1 hour prior to challenge
Procedure: (§3) In view of the observations of Giampetri, et al, supra, serum levels of the anti-inflammatory cytokines IL-4 and IL- 10 were measured in the sera of mice that had been challenged, either with the whole bacteria or with LPS, as described supra, and had received IL-9 24 and 1 hour prior to challenge, as described supra. Levels were measured via ELISAs, 2, 4, 6, 8, and 24 hours after challenge.

[6] = system: P. aeruginosa (serotype 10); assay: live sepsis model, survival after lethal P. aeruginosa challenge; assay type: in vivo, mice
Procedure: This model was used in these experiments. To elaborate, hybrid mice (BALB/c Cr×DBA/2Cr) F1 (CD2 F1) of both sexes, ranging in age from 2-4 months were used. Mice were injected, intravenously, with 10^10 cells of P. aeruginosa (serotype 10), as described by, e.g., Campanile, et al, Cell. Immunol. 128:250 (1990); Campanile, et al, Cell. Immunol. 147:341 (1993); Campanile, et al, Eur. J. Pharmacol. 307:191 (1996). The microorganism was cultured in tryptic soy broth using standard conditions, and incubated at 37° C. for 18-24 hours under constant aeration. After the overnight culturing, the microorganisms were centrifuged, forming a soft pellet which was then resuspended in phosphate buffered saline. The dose of microorganisms referred to supra was then administered. This inoculum size is known to be lethal in more than 90% of test animal populations.
The interleukins and PBS were all administered intraperitoneally. Pentoxifylline was also administered intraperitoneally.
The experiments described supra were repeated, using a variety of doses, and both prophylactic and post-challenge administration.
To test this, mice received pentoxifylline at a dose of 30 mg/kg of body weight 1 hour before challenge with bacteria. The animals received a dose of murine IL-9 (4 μg) three hours post infection.

[7] = system: TNF-α, IL-12 p40, and IFN-γ; assay: serum levels of TNF-α, IL-12 p40 and IFN-γ after challenge (bioassay / immunoassay); assay type: in vivo, mice; conditions: IL-9 24 and 1 hour prior to challenge (P. aeruginosa or LPS); 2, 4 and 6 hours after challenge
From the text: as §1, §2

IL-10 [8] = assay: serum IL-10 by ELISA after LPS challenge; assay type: in vivo; conditions: LPS challenged mice; IL-9 24 and 1 hour prior to challenge
Procedure: as §3

IL-4 = assay: serum IL-4 by ELISA after challenge; assay type: in vivo, mice; conditions: IL-9 24 and 1 hour prior to challenge with bacteria or LPS; 2-24 hours after challenge
Procedure: as §3

[9] = LPS challenge (LD90), survival; assay type: in vivo, mice; conditions: 850 μg LPS i.p.; IL-9 24 and 1 hour prior to challenge
Procedure: as §2

Question: For `CC(=O)CCCCn1c(=O)c2c(ncn2C)n(C)c1=O` [Pentoxifylline, reference compound], which “protection in experimental sepsis” value ([1]; phosphodiesterase inhibitor, literature statement) is on record?
Answer: The value was “confers protection”.

B1: IL-4: IL-4 (3 μg/mouse), together with 30 μg of anti-IL-4 monoclonal antibodies; composition improving bioavailability of IL-4 (protein, UniProt P07750 21-140, looked up)
Interleukin-4: HIHGCDKNHLREIIGILNEVTGEGTPCTEMDVPNVLTATKNTTESELVCRASKVLRIFYLKHGKTPCLKKNSSVLMELQRLFRAFRCLDSSISCTMNESKSTSLKDFLESLKSIMQMDYS
modifications: complexed with anti-IL-4 antibody
Question: Which “protection against fatal sepsis” value ([1]; IL-4 3 μg/mouse together with 30 μg anti-IL-4 monoclonal antibodies, i.p., before P. aeruginosa challenge) does the source give for B1 here?
Answer: The value was 100%.

B2: IL-9: recombinant murine IL-9 produced in a baculovirus model in accordance with Druez, et al (protein, UniProt P15247 19-144, looked up)
Interleukin-9: QRCSTTWGIRDTNYLIENLKDDPPSKCSCSGNVTSCLCLSVPTDDCTTPCYREGLLQLTNATQKSRLLPVFHRVKRIVEVLKNITCPSFSCEKPCNQTMAGNTLSFLKSLLGTFQKTEMQRQKSRP
Question: For B2, which “IL-10 specific transcripts in spleen” value (IL-10 [2]) is on record?
Answer: The value was “extensive expression”.

Question: And the “drop in TNF-α levels” value (TNF-α [3])?
Answer: The value was “better than a twofold drop”.

Question: And the “drop in TNF-α levels” value (TNF-α [4])?
Answer: The value was 10 fold.

Question: And the “increase of IL-10 levels (serum)” value (IL-10 [5])?
Answer: Its value is “striking”.

Question: What about the survival rate ([6]; IL-9 i.p. prior to P. aeruginosa challenge, pooled independent experiments) of the same molecule?
Answer: The survival rate was “about 80%”.

Question: What about the cure rate ([6]; single 4 μg dose 24 hours before bacterial challenge, no second dose) of the same molecule?
Answer: The cure rate was 50%.

Question: And the “benefit (survival)” value ([6]; single treatment of 4 μg near the time of infection, and as much as 3 hours post challenge)?
Answer: Its value is “marginal benefit”.

Question: And the “expression of the cytokines (TNF-α, IL-12 p40, IFN-γ) in serum” value [7]?
Answer: Its value is “drastic reduction in all three cytokines”.

Question: And the “increase of IL-10 levels (serum)” value (IL-10 [8])?
Answer: Its value is “The same effect, albeit a lesser one”.

Question: And the “effect on IL-4 production (serum level)” value (IL-4)?
Answer: Its value is “did not appear to have any effect”.

Question: What about the “outcome (survival) of LPS challenged mice” value [9] of the same molecule?
Answer: The value was “death in the majority of the animals tested”.
